Molecular target: high-affinity non-cleavable CD16 (hnCD16) Fc receptor
Experiment: cell-based or functional assay

Substance: Rituximab (antibody)
- % specific cytotoxicity at E:T=1:1 (ADCC against CD19 negative leukemia cells) (% specific cytotoxicity): 75.6

Source: patent US20230390337A1
